From patent publication US20220017960

Molecular target: FLAG-tagged TRIM25, Q14258
Sequence (Q14258 whole entry): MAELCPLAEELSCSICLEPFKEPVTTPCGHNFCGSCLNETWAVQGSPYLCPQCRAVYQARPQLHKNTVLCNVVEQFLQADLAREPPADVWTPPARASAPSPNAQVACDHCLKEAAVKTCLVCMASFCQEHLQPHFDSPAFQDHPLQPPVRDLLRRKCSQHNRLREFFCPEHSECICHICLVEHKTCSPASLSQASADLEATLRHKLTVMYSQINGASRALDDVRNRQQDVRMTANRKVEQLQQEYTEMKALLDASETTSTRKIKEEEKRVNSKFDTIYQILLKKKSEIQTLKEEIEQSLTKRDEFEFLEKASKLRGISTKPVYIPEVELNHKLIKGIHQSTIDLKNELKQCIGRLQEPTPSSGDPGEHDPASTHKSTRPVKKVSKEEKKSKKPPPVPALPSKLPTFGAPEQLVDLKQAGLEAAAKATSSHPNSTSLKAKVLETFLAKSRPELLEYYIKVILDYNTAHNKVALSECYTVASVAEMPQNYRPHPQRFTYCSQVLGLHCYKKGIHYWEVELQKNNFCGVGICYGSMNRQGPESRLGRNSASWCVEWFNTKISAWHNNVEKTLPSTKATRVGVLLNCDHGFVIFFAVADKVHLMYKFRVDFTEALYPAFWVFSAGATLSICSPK

| Protein | deubiquitination of TRIM25 (anti-FLAG immunoprecipitation, immunoblot with anti-ubiquitin and anti-TRIM25 antibodies) | deubiquitinase activity towards TRIM25 (anti-FLAG immunoprecipitation, immunoblot with anti-ubiquitin and anti-TRIM25 antibodies) |
| --- | --- | --- |
| Xpress (Xpr)-tagged human USP15 wild type (WT) (protein) AEGGAADLDTQRSDIATLLKTSLRKGDTWYLVDSRWFKQWKKYVGFDSWDKYQMGDQNVYPGPIDNSGLLKDGDAQSLKEHLIDELDYILLPTEGWNKLVSWYTLMEGQEPIARKVVEQGMFVKHCKVEVYLTELKLCENGNMNNVVTRRFSKADTIDTIEKEIRKIFSIPDEKETRLWNKYMSNTFEPLNKPDSTIQDAGLYQGQVLVIEQKNEDGTWPRGPSTPNVKNSNYCLPSYTAYKNYDYSEPGRNNEQPGLCGLSNLGNTCFMNSAIQCLSNTPPLTEYFLNDKYQEELNFDNPLGMRGEIAKSYAELIKQMWSGKFSYVTPRAFKTQVGRFAPQFSGYQQQDCQELLAFLLDGLHEDLNRIRKKPYIQLKDADGRPDKVVAEEAWENHLKRNDSIIVDIFHGLFKSTLVCPECAKISVTFDPFCYLTLPLPMKKERTLEVYLVRMDPLTKPMQYKVVVPKIGNILDLCTALSALSGIPADKMIVTDIYNHRFHRIFAMDENLSSIMERDDIYVFEININRTEDTEHVIIPVCLREKFRHSSYTHHTGSSLFGQPFLMAVPRNNTEDKLYNLLLLRMCRYVKISTETEETEGSLHCCKDQNINGNGPNGIHEEGSPSEMETDEPDDESSQDQELPSENENSQSEDSVGGDNDSENGLCTEDTCKGQLTGHKKRLFTFQFNNLGNTDINYIKDDTRHIRFDDRQLRLDERSFLALDWDPDLKKRYFDENAAEDFEKHESVEYKPPKKPFVKLKDCIELFTTKEKLGAEDPWYCPNCKEHQQATKKLDLWSLPPVLVVHLKRFSYSRYMRDKLDTLVDFPINDLDMSEFLINPNAGPCRYNLIAVSNHYGGMGGGHYTAFAKNKDDGKWYYFDDSSVSTASEDQIVSKAAYVLFYQRQDTFSGTGFFPLDRETKGASAATGIPLESDEDSNDNDNDIENENCMHTN | we observed that TRIM25 is a target for deubiquitination by USP15 | – |
| Xpress (Xpr)-tagged human USP15 mutant (L720R) (protein) AEGGAADLDTQRSDIATLLKTSLRKGDTWYLVDSRWFKQWKKYVGFDSWDKYQMGDQNVYPGPIDNSGLLKDGDAQSLKEHLIDELDYILLPTEGWNKLVSWYTLMEGQEPIARKVVEQGMFVKHCKVEVYLTELKLCENGNMNNVVTRRFSKADTIDTIEKEIRKIFSIPDEKETRLWNKYMSNTFEPLNKPDSTIQDAGLYQGQVLVIEQKNEDGTWPRGPSTPNVKNSNYCLPSYTAYKNYDYSEPGRNNEQPGLCGLSNLGNTCFMNSAIQCLSNTPPLTEYFLNDKYQEELNFDNPLGMRGEIAKSYAELIKQMWSGKFSYVTPRAFKTQVGRFAPQFSGYQQQDCQELLAFLLDGLHEDLNRIRKKPYIQLKDADGRPDKVVAEEAWENHLKRNDSIIVDIFHGLFKSTLVCPECAKISVTFDPFCYLTLPLPMKKERTLEVYLVRMDPLTKPMQYKVVVPKIGNILDLCTALSALSGIPADKMIVTDIYNHRFHRIFAMDENLSSIMERDDIYVFEININRTEDTEHVIIPVCLREKFRHSSYTHHTGSSLFGQPFLMAVPRNNTEDKLYNLLLLRMCRYVKISTETEETEGSLHCCKDQNINGNGPNGIHEEGSPSEMETDEPDDESSQDQELPSENENSQSEDSVGGDNDSENGLCTEDTCKGQLTGHKKRLFTFQFNNLGNTDINYIKDDTRHIRFDDRQLRLDERSFRALDWDPDLKKRYFDENAAEDFEKHESVEYKPPKKPFVKLKDCIELFTTKEKLGAEDPWYCPNCKEHQQATKKLDLWSLPPVLVVHLKRFSYSRYMRDKLDTLVDFPINDLDMSEFLINPNAGPCRYNLIAVSNHYGGMGGGHYTAFAKNKDDGKWYYFDDSSVSTASEDQIVSKAAYVLFYQRQDTFSGTGFFPLDRETKGASAATGIPLESDEDSNDNDNDIENENCMHTN | – | we observed a reduced deubiquitinase activity in the L749R variant (the corresponding human L720R isoform was tested), when compared to WT |
